Test results published in patent US20250115641A1 (published 2025).
Bridge positions count the residues as written; N and C are the ends. Square brackets hold non-standard residues; d marks the D form. Primed or numbered codes have the meaning given here. S5 = C=CCCC[C@](C)(N)C(=O)O; Nle = CCCC[C@H](N)C(=O)O; FITC′ = fluorescein; βAla = NCCC(=O)O

T1: human NLRP3^PYD (residues 3-110, C-terminal 6 x histidine) (human, UniProt Q96P20 3-110)
T1 chain: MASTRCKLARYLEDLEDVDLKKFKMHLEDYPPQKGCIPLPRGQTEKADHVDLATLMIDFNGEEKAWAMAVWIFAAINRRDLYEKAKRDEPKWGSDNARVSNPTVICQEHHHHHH


Tests used:
[1] = biological target: T2, human N-terminally GST tagged ASC^PYD (human, UniProt Q9ULZ3 1-106); test: fluorescence anisotropy
[2] = biological target: GST-NLRP3PYD; test: fluorescence anisotropy
[3] = biological target: T2, human N-terminally GST tagged ASC^PYD; test: FP
[4] = biological target: T1, human NLRP3^PYD (residues 3-110, …); test: FP

T2 sequence (Q9ULZ3 1-106): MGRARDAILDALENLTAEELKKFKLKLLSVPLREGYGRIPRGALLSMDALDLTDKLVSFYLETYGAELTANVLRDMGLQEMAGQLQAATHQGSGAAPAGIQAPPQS

Binder | Kd [1] [µM] | Kd [2] [µM] | Kd [3] [µM] | Kd [4] [µM]
AEXLKKXKXKLGTV (N-terminal fluorescein (FITC) on β-alanine; S5 = (S)-2-(4-pentenyl)alanine residues covalently linked (hydrocarbon staple); made on Rink amide resin) [fSAH-POP1-4] | > 56 | 32 | > 10 | –
{FITC′}-[βAla]EELKKFK[Nle]KLGTV-NH2 [fPOP1-H2] | > 56 | 27 | > 10 | 9.2
XQXLKKXKXKLWTA (N-terminal fluorescein (FITC) on β-alanine; S5 = (S)-2-(4-pentenyl)alanine residues covalently linked (hydrocarbon staple); made on Rink amide resin) [fSAH-POP1-6] | > 56 | 43 | – | –
AQXLRKXQXKLWTA (not fully specified; N-terminal fluorescein (FITC) on β-alanine; S5 = (S)-2-(4-pentenyl)alanine residues covalently linked (hydrocarbon staple); norleucine (NL) at the position of M25 of POP1; made on Rink amide resin) [fSAH-POP1-10] | > 56 | 31 | – | –
{FITC′}-[βAla]Q[S5]LRR[S5]QWKLWTS-NH2 (staple 3-7) [fSAH-POP1-16] | – | 15 | – | –

Further binders by falling Kd [2], results first:

Kd [1] [µM] | Kd [2] [µM] | Kd [3] [µM] | Kd [4] [µM] | Binder
> 56 | 30 | > 10 | – | AQXLKKXKXKLGTA (N-terminal fluorescein (FITC) on β-alanine; S5 = (S)-2-(4-pentenyl)alanine residues covalently linked (hydrocarbon staple); made on Rink amide resin) [fSAH-POP1-5]
– | 20 | 0.59 | – | {FITC′}-[βAla]Q[S5]LRK[S5]QWKLWTA-NH2 (staple 3-7) [fSAH-POP1-12]
– | 12 | – | – | {FITC′}-[βAla]Q[S5]LRR[S5]QWKLWTA-NH2 (staple 3-7) [fSAH-POP1-13]
